{
  "source": "the RNAGym collection of RNA variant scans (doi:10.1073/pnas.2313332121)",
  "parents": {"B1": {"name": "TPR 5TU (parent)", "chain": "GGAUCUUCUCGAUCUAACAAAAAAGACAAAUCUGCCACAAAGCUUGAGAGCAUCUUCGGAUGCAGAGGCGGCAGCCUUCGGUGGCGCGAUAGCGCCAACGUUCUCAACUAUGACACGCAAAACGCGUGCUCCGUUGAAUGGAGUUUAUCAUG"}},
  "note": "This sample holds only a part of the variants without activity.",
  "data": [
    {"variants_of": "B1", "experiment": "polymerase ribozyme fitness, log enrichment relative to wild type (log ratio); higher = more active; in vitro selection for triplet polymerase activity", "in_short": "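Both subunits of a heterodimeric triplet polymerase ribozyme were given their own mutant library, built by PCR and transcribed. Each library was annealed with a biotinylated primer, the partner subunit and triplets, incubated frozen at −7 °C, and its extended constructs gel-excised, captured on streptavidin beads and amplified by RT-PCR, all in one round done in triplicate. Fitness is the logarithm of genotype enrichment relative to wild-type enrichment, with replicates averaged by inverse-variance weighting. That logarithm is base 2, and Illumina-sequenced genotypes needed ≥10 input reads and ≥1 read per output.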", "values": [
      {"variant": "U15C A52C C85G G94A", "polymerase ribozyme fitness (log ratio)": 0.00508},
      {"variant": "U15G C72U C79A C93U G94U C96A G140A", "polymerase ribozyme fitness (log ratio)": "≤ -4.2"},
      {"variant": "U15C C85U", "polymerase ribozyme fitness (log ratio)": -0.718},
      {"variant": "U15G G83U", "polymerase ribozyme fitness (log ratio)": -0.494},
      {"variant": "C14U C51U U135C", "polymerase ribozyme fitness (log ratio)": -3.66},
      {"variant": "A16U A20U C54U G58C G59A C93U C114U U148A", "polymerase ribozyme fitness (log ratio)": "≤ -4.2"},
      {"variant": "A17C C85G G94A C123A G124U", "polymerase ribozyme fitness (log ratio)": -1.12},
      {"variant": "U15A A24G A98G C99A", "polymerase ribozyme fitness (log ratio)": "≤ -4.2"},
      {"variant": "C14U U53A", "polymerase ribozyme fitness (log ratio)": -2.41},
      {"variant": "U15G A29U C75G C87G G88U A119G C149A", "polymerase ribozyme fitness (log ratio)": "≤ -4.2"},
      {"variant": "A16C A22C C54U A113U", "polymerase ribozyme fitness (log ratio)": -4.06},
      {"variant": "C14U G65C C87G C96U C132U U139G", "polymerase ribozyme fitness (log ratio)": "≤ -4.2"},
      {"variant": "U15A A19C A23U G46C U53G C57A G68A G71A C93G U111G G141U", "polymerase ribozyme fitness (log ratio)": "≤ -4.2"},
      {"variant": "A16U C51U G86U U104A C108A G124U", "polymerase ribozyme fitness (log ratio)": "≤ -4.2"},
      {"variant": "C14U G86U", "polymerase ribozyme fitness (log ratio)": -3.21},
      {"variant": "C14U U78C", "polymerase ribozyme fitness (log ratio)": -2.43},
      {"variant": "A16G A21U A97G", "polymerase ribozyme fitness (log ratio)": -1.74},
      {"variant": "C14U U33G G59C C87U G124U G141C G152U", "polymerase ribozyme fitness (log ratio)": -4.16},
      {"variant": "A16G C54A C116A G133C", "polymerase ribozyme fitness (log ratio)": -2.21},
      {"variant": "U15A C75G C95U A142C", "polymerase ribozyme fitness (log ratio)": "≤ -4.2"},
      {"variant": "C14U C96U", "polymerase ribozyme fitness (log ratio)": -0.908},
      {"variant": "A16G A21C G80A C103A U104G", "polymerase ribozyme fitness (log ratio)": "≤ -4.2"},
      {"variant": "U15A A91G G100C", "polymerase ribozyme fitness (log ratio)": "≤ -4.2"},
      {"variant": "A16C G50A A64G C75A G83C C131A", "polymerase ribozyme fitness (log ratio)": "≤ -4.2"},
      {"variant": "A16U G46C U61A G67C G83C A142C", "polymerase ribozyme fitness (log ratio)": "≤ -4.2"},
      {"variant": "A16G C57A C85G A121U", "polymerase ribozyme fitness (log ratio)": -2.53},
      {"variant": "A16C A120C G140A", "polymerase ribozyme fitness (log ratio)": -3.75},
      {"variant": "A16C A24U C57U", "polymerase ribozyme fitness (log ratio)": -2.44},
      {"variant": "C14U C51U U56A A119G", "polymerase ribozyme fitness (log ratio)": -2.23},
      {"variant": "A16C A24U G58A G92U", "polymerase ribozyme fitness (log ratio)": -2.2},
      {"variant": "C14U C93U", "polymerase ribozyme fitness (log ratio)": -2.62},
      {"variant": "U15G A37U A52C U90C U148G", "polymerase ribozyme fitness (log ratio)": "≤ -4.2"},
      {"variant": "A16C C54U C85A", "polymerase ribozyme fitness (log ratio)": -3.31},
      {"variant": "A16U A37C C63U C95U C123A G141U", "polymerase ribozyme fitness (log ratio)": -4.01},
      {"variant": "U15G C38U", "polymerase ribozyme fitness (log ratio)": -0.133},
      {"variant": "A16U C57G U77A G88U", "polymerase ribozyme fitness (log ratio)": "≤ -4.2"},
      {"variant": "A16U C57A G58U C75G C87A C99U A142C U144C", "polymerase ribozyme fitness (log ratio)": "≤ -4.2"},
      {"variant": "U15G A39U G50C G70C G88U C105U", "polymerase ribozyme fitness (log ratio)": "≤ -4.2"},
      {"variant": "A16G A26U G65U C103G A107G C114G", "polymerase ribozyme fitness (log ratio)": "≤ -4.2"},
      {"variant": "A16U A19U A20U A40U G86U C96U", "polymerase ribozyme fitness (log ratio)": "≤ -4.2"},
      {"variant": "U15G A29U C76A G83A", "polymerase ribozyme fitness (log ratio)": "≤ -4.2"},
      {"variant": "A16C A22U A26C A41U A52G C57U G58C G68U A91C C95G U139C G140A", "polymerase ribozyme fitness (log ratio)": "≤ -4.2"},
      {"variant": "A17C A22C A73C A91C C95G U101A G143A", "polymerase ribozyme fitness (log ratio)": "≤ -4.2"},
      {"variant": "A16G C96A", "polymerase ribozyme fitness (log ratio)": -0.881},
      {"variant": "U15C U56G C63U C95A C96A A106G", "polymerase ribozyme fitness (log ratio)": -1.5},
      {"variant": "A16U A26C A29U G68C G83A", "polymerase ribozyme fitness (log ratio)": "≤ -4.2"},
      {"variant": "A16C C38A", "polymerase ribozyme fitness (log ratio)": -1.34},
      {"variant": "A16U U53A C57A C95A", "polymerase ribozyme fitness (log ratio)": -2.57},
      {"variant": "A16U A73G A107G A119G", "polymerase ribozyme fitness (log ratio)": "≤ -4.2"},
      {"variant": "C14U A91G C116U U134A", "polymerase ribozyme fitness (log ratio)": "≤ -4.2"},
      {"variant": "A16G U33G C93A C95A C103U A121G", "polymerase ribozyme fitness (log ratio)": "≤ -4.2"},
      {"variant": "A16G G58A C129G", "polymerase ribozyme fitness (log ratio)": -4.19},
      {"variant": "A16U G83U C85U C103G U135G", "polymerase ribozyme fitness (log ratio)": "≤ -4.2"},
      {"variant": "U15G U139A", "polymerase ribozyme fitness (log ratio)": "≤ -4.2"},
      {"variant": "C14U U146G", "polymerase ribozyme fitness (log ratio)": -1.34},
      {"variant": "C14U U45G C87A C95U C103A", "polymerase ribozyme fitness (log ratio)": -4.17},
      {"variant": "A16U A19U G80A U144G", "polymerase ribozyme fitness (log ratio)": -2.53},
      {"variant": "U15C A41C C57U C76U C93U", "polymerase ribozyme fitness (log ratio)": -0.0442},
      {"variant": "C14U U15A A20G C38U C57U U90C U102G A119G A122C", "polymerase ribozyme fitness (log ratio)": "≤ -4.2"},
      {"variant": "A16G U53A U56G A89C C96U U111C", "polymerase ribozyme fitness (log ratio)": "≤ -4.2"},
      {"variant": "A16U A20G A37C C95G U102G A113U", "polymerase ribozyme fitness (log ratio)": "≤ -4.2"},
      {"variant": "A16U C87U A89U G140U G143A", "polymerase ribozyme fitness (log ratio)": "≤ -4.2"},
      {"variant": "C14U C27G C35G A39U U82A G86A A97U", "polymerase ribozyme fitness (log ratio)": "≤ -4.2"},
      {"variant": "C14U U56G U78C G86U", "polymerase ribozyme fitness (log ratio)": -4.1},
      {"variant": "U15C C54U", "polymerase ribozyme fitness (log ratio)": 0.268},
      {"variant": "U15G U135G", "polymerase ribozyme fitness (log ratio)": -3.65},
      {"variant": "A16C G86C", "polymerase ribozyme fitness (log ratio)": -3.43},
      {"variant": "C14U G92A C116G", "polymerase ribozyme fitness (log ratio)": -3.86},
      {"variant": "U15A C18G U146G", "polymerase ribozyme fitness (log ratio)": -0.119},
      {"variant": "A16C A22G U53A G92U", "polymerase ribozyme fitness (log ratio)": -2.34},
      {"variant": "A16U A26G U53C G84C C87A G128C G141A", "polymerase ribozyme fitness (log ratio)": "≤ -4.2"},
      {"variant": "A16G G48U U109G", "polymerase ribozyme fitness (log ratio)": -3.48},
      {"variant": "A16G G48C A52G", "polymerase ribozyme fitness (log ratio)": -1.13},
      {"variant": "U15G G81A C118A A119C G133A A138U", "polymerase ribozyme fitness (log ratio)": "≤ -4.2"},
      {"variant": "A16G C27G A30U U61A A97U G128U", "polymerase ribozyme fitness (log ratio)": "≤ -4.2"},
      {"variant": "A16U G42A G59A G71A A89G", "polymerase ribozyme fitness (log ratio)": "≤ -4.2"},
      {"variant": "A16G A26U C51U A52C C87U", "polymerase ribozyme fitness (log ratio)": "≤ -4.2"},
      {"variant": "A16C G48A C51U C96G", "polymerase ribozyme fitness (log ratio)": -3.07},
      {"variant": "A16G A89U A115G A119G U134G U144A", "polymerase ribozyme fitness (log ratio)": "≤ -4.2"},
      {"variant": "C14U G42A G59A C87A", "polymerase ribozyme fitness (log ratio)": "≤ -4.2"},
      {"variant": "U15C C85U G92U G141C U144C", "polymerase ribozyme fitness (log ratio)": -3.03},
      {"variant": "A16U C116A G136A G140C", "polymerase ribozyme fitness (log ratio)": "≤ -4.2"},
      {"variant": "A17C C35U G92A A122G", "polymerase ribozyme fitness (log ratio)": -2.61},
      {"variant": "U15G C57A A98U U102A A120U A122U", "polymerase ribozyme fitness (log ratio)": -1.85}
    ]}
  ]
}
